Test [1] addresses HA-CXCR1-RLuc (human) (UniProt P25024).
Test [2] has the same target. The source holds these as a separate data set.
Test [3] has the same target. This is another data set of the same source.

HA-CXCR1-RLuc (human), sequence (P25024 2-350): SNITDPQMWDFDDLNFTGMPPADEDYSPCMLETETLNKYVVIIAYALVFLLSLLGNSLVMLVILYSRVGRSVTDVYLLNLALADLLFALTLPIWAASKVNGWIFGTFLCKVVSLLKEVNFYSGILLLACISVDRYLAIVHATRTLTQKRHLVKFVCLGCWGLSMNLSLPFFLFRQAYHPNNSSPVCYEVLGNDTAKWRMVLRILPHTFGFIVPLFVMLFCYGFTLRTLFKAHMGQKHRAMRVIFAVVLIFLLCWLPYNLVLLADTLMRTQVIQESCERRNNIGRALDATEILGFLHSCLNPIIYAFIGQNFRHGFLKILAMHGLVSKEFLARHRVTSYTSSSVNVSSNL

The substance CXCL8(6-77) (ligand) showed a Gαi-dependent reduction of forskolin-raised cAMP (AlphaScreen cAMP assay) in HEK-293T cells transfected with CXCR1 (pcDNA6 construct without RLuc); 0.1-100 nM; potency against CXCL8(1-77) (fold (against CXCL8(1-77))) in test [1] of more than 10. This substance also displayed a potency to induce recruitment of β-arrestin 2-EYFP to CXCR1-RLuc (BRET dose-response, HEK-293T), against CXCL8(1-77) (fold (against CXCL8(1-77))) in test [2] of 10.

In turn, CXCL8(1-77) (ligand) came in with an internalization of endogenous CXCR1 on freshly purified human neutrophils (flow cytometry of surface receptor; 0.1-100 nM, 1 h, 37 °C); lowest concentration with a significant effect in test [3] of more than 10 nM.

For the substance [Cit5]CXCL8(1-77) (ligand), the Gαi-dependent reduction of forskolin-raised cAMP (AlphaScreen cAMP assay) in HEK-293T cells transfected with CXCR1 (pcDNA6 construct without RLuc); 0.1-100 nM; potency against CXCL8(1-77) (fold (against CXCL8(1-77))) in test [1] was more than 10.

The record behind these values is PMC6321254.
